Test results reported in paper PMC11810782.

Molecular target: GFP–TGN46 (UniProt O43493)
Experiment: single-molecule GFP step-photobleaching by TIRF (NativeNanoBleach); ChloroSMA60-extracted total membrane of cells expressing GFP–TGN46 passed over glass slides with streptavidin and biotinylated GFP nanobody; discs captured and GFP bleaching steps counted; 1,000–1,500 particles for each biological replicate, corrected for GFP maturation efficiency

Sequence of GFP–TGN46, O43493 22-437 (natural protein; other documents disagree on this pair) (O43493 22-437): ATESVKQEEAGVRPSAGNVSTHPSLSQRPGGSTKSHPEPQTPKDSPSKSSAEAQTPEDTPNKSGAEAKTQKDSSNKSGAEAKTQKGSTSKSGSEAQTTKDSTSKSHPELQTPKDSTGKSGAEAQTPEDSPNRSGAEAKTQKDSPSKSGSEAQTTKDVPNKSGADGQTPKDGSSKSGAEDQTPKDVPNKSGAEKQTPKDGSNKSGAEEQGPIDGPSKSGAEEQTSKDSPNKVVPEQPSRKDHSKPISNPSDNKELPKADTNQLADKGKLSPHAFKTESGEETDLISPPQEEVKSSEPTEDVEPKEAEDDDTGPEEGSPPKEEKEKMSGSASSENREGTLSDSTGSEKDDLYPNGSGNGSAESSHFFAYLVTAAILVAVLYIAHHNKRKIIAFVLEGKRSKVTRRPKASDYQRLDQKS

With “GFP–TGN46, O43493 22-437 (natural protein; other documents disagree on this pair)” the stoichiometry N was 1 to 4.
